Data taken from article PMC4168798 (ACS Chemical Biology, 2014).

B1: Kaposi sarcoma herpesvirus Bcl-2 (domain or fragment)
chain: MDEDVLPGEVLAIEGIFMACGLNEPEYLYHPLLSPIKLYITGLMRDKESLFEAMLANVRFHSTTGINQLGLSMLQVSGDGNMNWGRALAILTFGSFVAQKLSNEPHLRDFALAVLPVYAYEAIGPQWFRARGGWRGLKAYCTQVLTRRRGRR

Assays:
Assay in all cases: fluorescence polarisation
[1] = target: B1
[2] = target: T1, Bcl-w (c-myc-tagged, without the C-terminal trans-membrane region) (human)
T1 chain: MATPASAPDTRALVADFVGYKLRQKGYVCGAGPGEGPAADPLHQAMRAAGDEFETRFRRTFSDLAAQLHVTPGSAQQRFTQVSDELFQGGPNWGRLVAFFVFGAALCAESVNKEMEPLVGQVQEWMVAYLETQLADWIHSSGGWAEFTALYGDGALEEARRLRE

[3] = target: T2, Bfl-1 (c-myc-tagged, without the C-terminal trans-membrane region) (human)
T2 sequence (Q16548 whole entry, looked up): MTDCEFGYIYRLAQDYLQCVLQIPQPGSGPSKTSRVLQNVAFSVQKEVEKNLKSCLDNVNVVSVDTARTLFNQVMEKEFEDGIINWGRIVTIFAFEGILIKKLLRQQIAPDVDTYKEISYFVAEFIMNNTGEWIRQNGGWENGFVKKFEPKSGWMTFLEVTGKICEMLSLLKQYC

[4] = target: Bcl-2 (c-myc-tagged, without the C-terminal trans-membrane region) (human)
[5] = target: Mcl-1 (c-myc-tagged, without the N-terminal domain and the C-terminal trans-membrane region) (human)
Chain of Mcl-1 (c-myc-tagged, without the N-terminal domain and the C-terminal trans-membrane region) (human) (Q07820 whole entry, the tested form may be a part): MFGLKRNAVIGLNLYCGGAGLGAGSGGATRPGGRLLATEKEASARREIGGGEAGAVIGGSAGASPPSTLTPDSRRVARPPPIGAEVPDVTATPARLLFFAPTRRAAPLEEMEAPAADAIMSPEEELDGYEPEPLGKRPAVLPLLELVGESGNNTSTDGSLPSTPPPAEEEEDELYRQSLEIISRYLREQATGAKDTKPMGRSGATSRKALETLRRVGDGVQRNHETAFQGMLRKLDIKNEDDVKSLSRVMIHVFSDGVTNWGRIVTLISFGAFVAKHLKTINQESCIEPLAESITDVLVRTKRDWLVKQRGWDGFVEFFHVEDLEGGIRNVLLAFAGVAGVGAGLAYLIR

[6] = target: Bcl-xL (c-myc-tagged, without the C-terminal trans-membrane region) (human)
Chain of Bcl-xL (c-myc-tagged, without the C-terminal trans-membrane region) (human) (Q07817 whole entry): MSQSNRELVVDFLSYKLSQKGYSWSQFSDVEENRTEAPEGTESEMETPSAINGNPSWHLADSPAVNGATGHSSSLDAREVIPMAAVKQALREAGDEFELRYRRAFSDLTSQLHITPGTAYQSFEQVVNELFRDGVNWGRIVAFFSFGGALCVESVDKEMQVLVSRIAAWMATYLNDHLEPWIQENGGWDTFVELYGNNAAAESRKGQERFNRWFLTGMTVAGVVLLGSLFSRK

[7] = target: Bim_A2eT_I3dL, N-terminal fluorescein (N-terminal 5/6-fluorescein amidite; C-terminal amidation)

## {5/6‑fluorescein amidite}-RPEIWLTQSLQRLGDEINAYYAR-NH2 (designed binder) [MS2, N-terminal fluorescein]
[1]
  Kd: < 1 nM

## {5/6‑fluorescein amidite}-RPEIWLTQHLQRLGDEINAYYAR-NH2 (designed binder) [MS3, N-terminal fluorescein]
[2]
  Kd: 340 nM
[3]
  Kd: 790 nM
[4]
  Kd: > 3000 nM

## {5/6‑fluorescein amidite}-RPEIWMGQGLRRLGDEINAYYAR-NH2 (designed binder) [A12, N-terminal fluorescein]
[2]
  Kd: 210 nM
[3]
  Kd: 22 nM
[1]
  Kd: 4 nM
[5]
  Kd: 2.4 nM
[6]
  Kd: 9.8 nM
[4]
  Kd: 42 nM

## {5/6‑fluorescein amidite}-RPEIWLGQSLQRLGDEINAYYAR-NH2 (designed binder) [B3, N-terminal fluorescein]
[2]
  Kd: 16 nM
[3]
  Kd: 26 nM
[1]
  Kd: 1.43 nM
[5]
  Kd: < 1 nM
[6]
  Kd: 4.2 nM
[4]
  Kd: 35 nM

## {5/6‑fluorescein amidite}-RPEIWMTQGLRRLGDEINAYYAR-NH2 (designed binder) [MS1, N-terminal fluorescein]
[1]
  Kd: 2.9 nM

## B1
[7]
  Kd: 1 nM
